Laboratory results: article PMC7987177

Assays:
[1] = target: wild-type Aplysia Kv1 voltage-gated potassium channel subunit, full-length (aKv1/FL) (Aplysia)
[2] = target: wild-type Aplysia Kv1 voltage-gated potassium channel subunit, full-length (aKv1/FL) (Aplysia); remark: listed apart in the source

## Opto-aKv1/SL/V400D (dominant-negative, short-length Opto-aKv1 subunit: aKv1 N-terminus, VfAu1 LOV domain, aKv1 from the T1 domain on, pore mutation V400D)
[1]
  suppression of the fast inactivating aKv1/FL whole-cell current in co-transfected CHO cells after 1.5 hours of blue light: 70%
[2]
  reduction in current density at +80 mV in cerebellar granule cells electroporated with both constructs, after 1.5 hours of blue light: 80%
